Laboratory results as given in patent US20230364000A1, “COMPOSITIONS COMPRISING COMBINATIONS OF COLLAGEN OR ELASTIN POLYPEPTIDES WITH ACTIVE INGREDIENTS AND METHODS OF USING SAME” (Geltor, Inc., priority 2020, published 2023).

How the values were obtained:
[1] = tested on: Human full-thickness skin equivalents (MatTek Epiderm FT co-culture tissue models); assay: Type I collagen production in human full-thickness skin equivalents (pro-collagen type I C-peptide ELISA); type: cell-based; conditions: polypeptide 0.1% w/w, FIG. 18
Description: Human full-thickness skin equivalents (MatTek Epiderm FT co-culture tissue models) which contain keratinocytes and fibroblasts were treated with a 0.1% w/w truncated human type 21 collagen polypeptide (having an amino acid sequence of SEQ ID NO: 16) (“C21”; FIG. […] Culture medium was changed every 2 days. On day 4, supernatant was collected and analyzed by enzyme-linked immunosorbent assay (ELISA) for pro-collagen type I C-peptide, which is a readout for total secreted collagen type I protein.

[2] = tested on: facial skin; assay: Cutometer skin firmness and elasticity, clinical study of Example 3; type: in vivo, human; conditions: 0.1% w/w topical formulation; for Cutometer Elasticity (R5 Ur/Ue) Mean ± SD / Cutometer Firmness (R0 Uf) Mean ± SD / Cutometer Elasticity (R2 Ua/Uf) Mean ± SD: n 14; for Cutometer Elasticity (R5 Ur/Ue) Mean ± SD: baseline 0.28 ± 0.06; for Cutometer Firmness (R0 Uf) Mean ± SD: baseline 0.35 ± 0.06; for Cutometer Elasticity (R2 Ua/Uf) Mean ± SD: baseline 0.64 ± 0.09
Description: A clinical study using human subjects to determine the effects of a topical skincare product containing truncated human type 21 collagen (SEQ ID NO: 16) is performed. The research is performed according to U.S. and International standards of Good Clinical Practice (FDA and ICH guidelines) and applicable government regulations.
A base formulation (control formulation) made of water, olive oil glycereth-8 esters, glycerin, coconut alkanes, hydroxyethyl acrylate/sodium acryloyldimethyl taurate copolymer, pentylene glycol, disodium EDTA, caprylyl glycol, chlorphenesin, phenoxyethanol is prepared. A formulation containing the truncated human type 21 collagen is prepared by adding sufficient collagen to prepare a topical formulation containing 0.1% w/w collagen.
The Cutometer MPA 580 (Courage+Khazaka, Germany) measures the viscoelastic properties of the skin by applying suction to the skin surface, drawing the skin into the aperture of the probe and determining the penetration depth using an optical measuring system.
The Cutometer outputs include many parameters of different portions of the measurement curve including of R0 (Uf, firmness), R2 (Ua/Uf, gross elasticity), R5 (Ur/Ue, net elasticity), R7 (Ur/Uf, elastic portion) and R9 (R3 [last max amp]-R0 [Uf], fatigue).
All subjects have Cutometer measurements taken on the left or right cheek (following a prepared randomization code) at baseline, immediately post-initial-application, and at weeks 2, 4, and 8. Skin elasticity is reported using the R5 (Ur/Ue) and R2 (Ua/Uf) parameter. As the skin becomes more elastic, this value will increase. Skin Firmness is reported using the R0 (Uf) parameter. As the skin becomes firmer, this value will decrease. Assessment location is recorded on a face map for each subject for consistency of measurements between visits.
Improvements in skin hydration, firmness, and elasticity were statistically significant.

[3] = tested on: fibroblasts; assay: RNA sequencing of extracellular matrix gene expression in fibroblasts; type: cell-based, human; conditions: 0.03%, 48 hours
Description: RNA sequencing was performed to analyze global gene expression. After 48 hours of exposure, fibroblasts were incubated with 0.03% of a polypeptide according to SEQ ID NO: 16. These fibroblasts expressed higher levels of several extracellular matrix genes than cells incubated in media alone. […] This response was similar to fibroblasts treated with Vitamin C (FIG. 2A; “D”).

[4] = tested on: human primary keratinocytes; assay: MTT viability of UVB-irradiated keratinocytes, pre- and post-irradiation treatment; type: cell-based; conditions: 0.1% for 24 hours before and 24 hours after 40 mJ/cm^2 UVB; compared with UVB-irradiated keratinocytes without treatment; FIG. 5
Description: To further assess the effects of treatment with a polypeptide of SEQ ID NO: 16 on UVB-irradiated keratinocytes, an experiment was performed with pre- and post-irradiation treatment. Human primary keratinocytes were pre-treated with 0.1% of a polypeptide of SEQ ID NO: 16 for 24 hours, irradiated with 40 mJ/cm^2 UVB light, and then treated again with 0.1% of a polypeptide of SEQ ID NO: 16 for an additional 24 hours. Cell viability was evaluated using the MTT metabolic colorimetric assay.

[5] = tested on: facial skin; assay: Facial skin redness, clinical study of Example 5; type: in vivo, human; conditions: topical facial serum 0.1%, n=15, FIG. 8
Source text: (§1) In a clinical study (n=15 subjects), subjects used a topical facial serum containing 0.1% of a polypeptide of SEQ ID NO: 16 for 8 weeks, after using a protein-free base facial serum for a 1-week washout period.

[6] = tested on: Human full-thickness skin equivalents (MatTek Epiderm FT co-culture tissue models); assay: Type III collagen production in human full-thickness skin equivalents (pro-collagen type III N-peptide ELISA); type: cell-based; conditions: polypeptide 0.1% w/w, ascorbic acid 2% w/w, FIG. 21
[7] = tested on: facial skin; assay: Cutometer facial skin elasticity, clinical study of Example 5; type: in vivo, human; conditions: topical facial serum 0.1%, n=15, FIG. 6
Source text: as §1, with “period. Topical application of a polypeptide of SEQ ID NO: 16 was associated with increased skin elasticity, measured using a cutometer.” for “period.”

B1: SEQ ID NO: 16: truncated human collagen type 21 alpha 1 without the DsbA secretion tag, recombinantly expressed in E. coli (protein)
chain: AGFPGLPGPAGEPGRHGKDGLMGSPGFKGEAGSPGAPGQDGTRGEPGIPGFPGNRGLMGQKGEIGPPGQQGKKGAPGMPGLMGSNGSPGQPGTPGSKGSKGEPGIQGMPGASGLKGEPGATGSPGEPGYMGLPGIQGKKGDKGNQGEKGIQGQKGENGRQGIPGQQGIQGHHGAKGERGEKGEPGVR
increase of type I collagen production relative to the untreated control ([1]; day 4 supernatant, hyaluronic acid 0.1% w/w (low molecular weight, 15-40 kDa)): 64%
production of type I collagen as compared to untreated cells ([1]; each agent alone, day 4, retinol (10, unit not given), ascorbic acid 2% w/w, hyaluronic acid 0.1% w/w): increased production
Cutometer Elasticity (R2 Ua/Uf) Mean Percent Improvement From BL mean ([2]; Immediate): 45.85%
Cutometer Elasticity (R5 Ur/Ue) Mean Percent Improvement From BL mean ([2]; Immediate): 44.57%
Cutometer Elasticity (R5 Ur/Ue) Percent of Subjects Showing Improvement From BL ([2]; Immediate): 92.9%
Cutometer Firmness (R0 Uf) Mean Percent Improvement From BL mean ([2]; Immediate): 30.38%
Cutometer Firmness (R0 Uf) Percent of Subjects Showing Improvement From BL ([2]; Immediate): 100%
Cutometer Elasticity (R5 Ur/Ue) Mean ± SD ([2]; Immediate, P-value <0.001*): 0.40 ± 0.09
Cutometer Firmness (R0 Uf) Mean ± SD ([2]; Immediate, P-value <0.001*, value decreases as skin becomes firmer): 0.24 ± 0.05
Cutometer Elasticity (R2 Ua/Uf) Mean ± SD ([2]; Immediate, P-value <0.001*): 0.93 ± 0.13
Cutometer Elasticity (R2 Ua/Uf) Mean Percent Improvement From BL mean ([2]; Week 2): 26.93%
Cutometer Elasticity (R5 Ur/Ue) Mean Percent Improvement From BL mean ([2]; Week 2): 33.36%
Cutometer Elasticity (R5 Ur/Ue) Percent of Subjects Showing Improvement From BL ([2]; Week 2): 92.9%
Cutometer Firmness (R0 Uf) Mean Percent Improvement From BL mean ([2]; Week 2): 11.27%
Cutometer Firmness (R0 Uf) Percent of Subjects Showing Improvement From BL ([2]; Week 2): 78.6%
Cutometer Elasticity (R5 Ur/Ue) Mean ± SD ([2]; Week 2, P-value <0.001*): 0.37 ± 0.08
Cutometer Firmness (R0 Uf) Mean ± SD ([2]; Week 2, P-value 0.028*): 0.31 ± 0.07
Cutometer Elasticity (R2 Ua/Uf) Mean ± SD ([2]; Week 2, P-value <0.001*): 0.80 ± 0.09
elastin gene (ELN) expression ([3]; relative to untreated cells and various marine collagens, FIG. 2B): upregulated
collagen type I gene (COL1A) expression ([3]; relative to untreated cells or retinol, similar to Vitamin C, FIG. 2A): upregulated
fibronectin gene (FN1) expression ([3]; relative to untreated cells, retinol and Vitamin C, FIG. 2C): upregulated
cell viability (MTT) [4]: higher cell viability
skin redness ([5]; 4 weeks vs baseline): decrease
skin redness ([5]; 8 weeks vs baseline): decrease
increase of type III collagen production relative to untreated control ([6]; day 2 supernatant): 82%
production of type III collagen as compared to untreated cells ([6]; each agent alone, day 2, retinol (10, unit not given), hyaluronic acid 0.1% w/w): increased production
subjects showing improvement with an increase in skin elasticity ([7]; 2 weeks vs baseline): 100%
subjects showing improvement with an increase in skin elasticity ([7]; 4 weeks vs baseline): 100%
